# Test results taken from patent US20250026850A1 (TRISHULA THERAPEUTICS, published 2025).
# T1: human CD39 on cells (human, UniProt P49961 1-510)
# T1 construct: One molecule for all cells that carry human CD39; the cell is named under assay; also called hCD39; cellular CD39
# T1 sequence: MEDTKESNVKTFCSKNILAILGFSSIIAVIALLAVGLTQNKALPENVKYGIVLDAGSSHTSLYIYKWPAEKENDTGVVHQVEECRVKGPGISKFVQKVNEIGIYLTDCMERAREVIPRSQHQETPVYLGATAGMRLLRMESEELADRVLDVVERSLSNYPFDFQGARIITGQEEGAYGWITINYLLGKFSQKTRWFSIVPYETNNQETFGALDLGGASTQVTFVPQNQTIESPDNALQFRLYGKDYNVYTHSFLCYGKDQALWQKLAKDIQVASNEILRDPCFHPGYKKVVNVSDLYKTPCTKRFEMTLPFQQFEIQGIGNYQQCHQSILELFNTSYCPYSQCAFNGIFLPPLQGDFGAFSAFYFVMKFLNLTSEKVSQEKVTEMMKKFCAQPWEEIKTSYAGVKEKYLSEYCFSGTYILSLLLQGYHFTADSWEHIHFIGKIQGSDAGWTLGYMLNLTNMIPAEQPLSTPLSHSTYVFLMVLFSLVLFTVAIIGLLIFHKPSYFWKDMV
# T2: rhCD39-ECD-His (R&D Systems) (human, UniProt P49961 38-478)
# T2 construct: Bought protein; that entry runs on through the C-terminal transmembrane and cytoplasmic residues; also called recombinant human CD39 extracellular domain; soluble recombinant human CD39 (ENTDP1) ECD; not shown: His tag
# T2 sequence: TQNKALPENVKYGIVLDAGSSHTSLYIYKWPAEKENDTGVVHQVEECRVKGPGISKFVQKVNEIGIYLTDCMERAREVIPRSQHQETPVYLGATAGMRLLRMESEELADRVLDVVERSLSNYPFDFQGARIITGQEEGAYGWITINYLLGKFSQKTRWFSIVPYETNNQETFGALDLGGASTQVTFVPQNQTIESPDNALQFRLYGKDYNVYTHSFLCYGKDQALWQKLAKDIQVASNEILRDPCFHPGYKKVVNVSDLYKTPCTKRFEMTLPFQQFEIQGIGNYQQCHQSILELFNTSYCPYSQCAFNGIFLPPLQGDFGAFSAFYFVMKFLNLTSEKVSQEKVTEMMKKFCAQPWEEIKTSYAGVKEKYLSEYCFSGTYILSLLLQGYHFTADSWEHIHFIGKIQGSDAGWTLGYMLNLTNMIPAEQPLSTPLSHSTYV
# T3: cynomolgus macaque (Macaca fascicularis) CD39 on cells (cynomolgus macaque (Macaca fascicularis), UniProt P49961 7-510 (human entry))
# T3 construct: CHO cells engineered to express cyno CD39, or primary cyno B cells and monocytes; also called cyno CD39; cCD39
# T3 chain: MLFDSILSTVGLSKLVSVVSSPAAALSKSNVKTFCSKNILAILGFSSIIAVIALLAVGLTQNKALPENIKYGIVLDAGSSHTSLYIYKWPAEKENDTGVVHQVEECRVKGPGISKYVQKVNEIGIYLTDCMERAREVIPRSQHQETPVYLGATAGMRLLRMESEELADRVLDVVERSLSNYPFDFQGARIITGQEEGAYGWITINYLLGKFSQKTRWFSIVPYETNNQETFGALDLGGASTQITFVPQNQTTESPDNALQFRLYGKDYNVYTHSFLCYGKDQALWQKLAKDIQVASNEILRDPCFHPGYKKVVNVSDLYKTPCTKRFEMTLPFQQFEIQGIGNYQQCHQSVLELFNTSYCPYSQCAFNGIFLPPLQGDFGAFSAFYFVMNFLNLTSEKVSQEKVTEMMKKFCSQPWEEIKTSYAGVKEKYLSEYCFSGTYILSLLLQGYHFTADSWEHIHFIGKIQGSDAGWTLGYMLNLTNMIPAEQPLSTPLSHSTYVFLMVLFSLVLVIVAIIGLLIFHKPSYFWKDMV
# What was measured:
# human CD39 on cells [1] = molecular target: T1, human CD39 on cells; assay: flow cytometry, 100 nM IgG, hCD39-CHO cells; MFI ratio to parental CHO
# Procedure: (§1) 100 nanomolar IgGs (each antibody is indicated as a unique clone number in the FIG.) were incubated at […] 30 minutes on ice in phosphate buffered saline (PBS) with parental CHO cells or CHO cells engineered to express either human or cynomolgus macaque (Macaca fascicularis) CD39 (CHO CD39 cells). Cells were then washed with ice cold PBS and incubated with a fluorescently labeled goat-anti-human IgG for 20 minutes on ice. Cells were washed and resuspended in ice cold PBS prior to analysis by flow cytrometry.
# [2] = molecular target: T2, rhCD39-ECD-His (R&D Systems); assay: BLI (Octet), IgG on anti-human Fc sensor, rhCD39-ECD-His 10-300 nM, 1:1 fit
# Procedure: The kinetic data was globally fit with a simple 1:1 Langmuir binding model to yield on-rate (kon) and off-rate (koff) values. The equilibrium dissociation constants (KD) were calculated from the kon and koff values.
# Binding kinetics were measured using the Octet Red96 system (ForteBio) at 25° C. in running buffer (1× Pall ForteBio Kinetics Buffer diluted into PBS or Tris pH 7.4). […] After a short baseline step in running buffer, the sensors were exposed to varying concentrations (10-300 nM) of rhCD39-ECD-His (R&D Systems) for the association step. Dissociation of the complex was monitored upon exposure of the sensors to running buffer once again. Data was processed using ForteBio Octet software with baseline subtraction, global fit and 1:1 binding model to obtain association and dissociation rates. KD was calculated from the ratio of kd to kₐ.
# [3] = molecular target: T3, cynomolgus macaque (Macaca …); assay: flow cytometry, 100 nM IgG, cCD39-CHO cells; MFI ratio to parental CHO
# Procedure: as §1
# [4] = molecular target: T3, cynomolgus macaque (Macaca …); assay: flow cytometry on cyno PBMC, gated B cells, anti-human IgG PE, Prism fit; unit from the x axis
# Procedure: (§2) EC50 was calculated using GrapPad Prism software. […] B cells were gated using FlowJo software and ECsos were calculated using GraphPad Prism.
# (§3) B cells were isolated from human donor leukopak using EasySep B cell isolation kit ([…] Technologies). Cyno monocytes were purified from fresh cyno blood using NHP CD14 positive selection kit (Miltenyi) and flow through was collected and stained with CD4, CD8, CD20, CD16, and CD3 antibodies (BD). […] Cell were washed 3 times in FACS buffer (PS, 2% FBS, and 2 mM EDTA) and incubated with secondary antibody (mouse anti-human IgG southern biotech) at 1:100 for 30 minutes at 4 degrees C. Cells were washed 2 times in FACS buffer and resuspended in FACS buffer and analyzed on BD Celesta.
# human CD39 on cells [5] = molecular target: T1, human CD39 on cells; assay: flow cytometry on MEL-28 cells, anti-human IgG secondary, Prism fit; unit from the x axis
# Procedure: (§4) Cells were washed 3 times in FACS buffer (PS, 2% FBS, and 2 mM EDTA) and next incubated with secondary antibody (goat anti-human IgG Southern Biotech) at 1:100 for 30 minutes at 4 degrees C. Cells were washed, resuspended in FACS buffer, and analyzed for binding by flow cytometry analysis on BD Celesta.
# human CD39 on cells [6] = molecular target: T1, human CD39 on cells; assay: flow cytometry on 721 cells, anti-human IgG secondary, Prism fit; unit from the x axis
# Procedure: as §4
# human CD39 on cells [7] = molecular target: T1, human CD39 on cells; assay: flow cytometry on purified human B cells, anti-human IgG-PE, Prism fit; unit from the x axis
# Procedure: as §2, §3
Cell Binding (FOB) (human CD39 on cells [1]),Kd [2] [nM],koff [2] [s⁻¹],kon [2] [M⁻¹ s⁻¹],Cell Binding (FOB) [3] [FOB],EC50 [4] [µg/mL],EC50 (human CD39 on cells [5]) [µg/mL],EC50 (human CD39 on cells [6]) [µg/mL],EC50 (human CD39 on cells [7]) [µg/mL],Binder
337,0.266,0.000134,503000,1420,,,,,"29852 (antibody, V domains shown) VH: QVQLVQSGAEVKKPGSSVKVSCKASGGTFSAMAISWVRQAPGQGLEWMGGILPIAGTANYAQKFQGRVTITADESTSTAYMELSSLRSEDTAVYYCARGGAKYASTYGMDVWGQGTTVTVSS VL: not shown"
129,1.23,0.000385,313000,398,,,,,"29851 (antibody, V domains shown) VH: QVQLVQSGAEVKKPGSSVKVSCKASGGTFASLAISWVRQAPGQGLEWMGGILPIFGEANYAQKFQGRVTITADESTSTAYMELSSLRSEDTAVYYCARGGAKYASTYGMDVWGQGTTVTVSS VL: not shown"
1170,1.07,0.000286,268000,5700,,,,,"31432 (antibody, V domains shown) VH: QVQLVQSGAEVKKPGSSVKVSCKASGGTFSHTAISWVRQAPGQGLEWMGGILPIGGTANYAQKFQGRVTITADESTSTAYMELSSLRSEDTAVYYCARGGAKYASQLGMDVWGQGTTVTVSS VL: not shown"
1290,0.558,0.000213,382000,3640,0.108,0.368,7.46,0.109,"31437 (antibody, V domains shown) VH: QVQLVQSGAEVKKPGASVKVSCKASGGTFQSLAISWVRQAPGQGLEWMGGILPIGGTANYAQKFQGRVTITADESTSTAYMELSSLRSEDTAVYYCARGGAKYAGRYGMDVWGQGTTVTVSS VL: not shown"
224,0.76,0.000229,302000,1140,,,,,"29857 (antibody, V domains shown) VH: QVQLVQSGAEVKKPGSSVKVSCKASGGTFSWLAISWVRQAPGQGLEWMGGIIPRGGTANYAQKFQGRVTITADESTSTAYMELSSLRSEDTAVYYCARGGAKYASTYGMDVWGQGTTVTVSS VL: not shown"
1020,9.05,0.00815,901000,1340,,,,,"28347 (antibody, V domains shown) VH: QVQLVQSGAEVKKPGSSVKVSCKASGGTFSSLAISWVRQAPGQGLEWMGGIIPIFGTANYAQKFQGRVTITADESTNTAYMELSSLRSEDTAVYYCARGGAKYASTYGMDVWGQGTTVTVSS VL: not shown"
1320,0.924,0.000243,263000,3570,,,,,"31436 (antibody, V domains shown) VH: QVQLVQSGAEVKKPGSSVKVSCKASGGTFSLLAISWVRQAPGQGLEWMGGILPIAGTANYAQKFQGRVTITADESTSTAYMELSSLRSEDTAVYYCARGGAKYAVGYGMDVWGQGTTVTVSS VL: not shown"
1060,0.672,0.0002,298000,2960,,,,,"31393 (antibody, V domains shown) VH: QVQLVQSGAEVKKPGSSVKVSCKASGGTFESYGISWVRQAPGQGLEWMGSIIPEFGIANYAQKFQGRVTITADESTSTTYMELSSLRSEDTAVYYCARESGGYRDHRLDVWGQGTMVTVSS VL: EIVMTQSPATLSVSPGERATLSCRASQSVGSNLAWYQQKPGQAPRLLIYGASTRATGIPARFSGSGSGTEFTLTISSLQSEDFAVYYCQQYLLWPLTFGGGTKVEIKR"
1320,0.922,0.000286,311000,5080,,,,,"31873 (antibody, V domains shown) VH: QVQLVQSGAEVKKPGSSVKVSCKASGGTFSKYGISWVRQAPGQGLEWMGSIIPEFGIANYAQKFQGRVTITADESTSTAYMELSSLRSEDTAVYYCARESGGYRDHRLGVWGQGTMVTVSS VL: EIVMTQSPATLSVSPGERATLSCRASQSVGSNLAWYQQKPGQAPRLLIYGASTRASGIPARFSGSGSGTEFTLTISSLQSEDFAVYYCQQYLLWPLTFGGGTKVEIKR"
1430,1.16,0.000286,246000,5480,,,,,"31861 (antibody, V domains shown) VH: QVQLVQSGAEVKKPGSSVKVSCKASGGTFGSYGISWVRQAPGQGLEWMGSIIPEFGIANYAQKFQGRVTITADESTSTAYMELSSLRSEDTAVYYCARESGTYRDHRLDVWGQGTMVTVSS VL: EIVMTQSPATLSVSPGERATLSCRASQSVGSNLAWYQQKPGQAPRLLIYGASTRATGIPARFSGSGSGTEFTLTISSLQSEDFAVYYCQQYLLWPLTFGGGTKVEIKR"
